Measurements: the supplement of paper PMC9732359
± gives the uncertainty stated by the source.

Test: protein stability index of a GFP-peptide fusion (yeast GPS) (PSI 1-4); higher = more stable; sorted into four equal gates, so the index is relative within each strain
How it was run: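 Plasmids in a pooled yeast library fused tiled 17-residue yeast protein peptides downstream of GFP and also expressed Cherry. Mid-log cultures grown without leucine were sorted into four equal gates by GFP/Cherry fluorescence ratio. Each gate's plasmids were PCR-amplified and Illumina-sequenced, and reads were matched to strains by barcodes. The protein stability index is derived by multiplying each gate's read frequency by its gate number and summing the results.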

Sequence | protein stability index (doa10∆) | protein stability index (pdr5∆) | protein stability index (san1∆) | protein stability index (ubr1∆)
HFFQIDGFNKTFHDELN [YML103C/NUP188] | 1.67 ± 0.07 | 2.04 ± 0.12 | 2.67 ± 0.14 | 2.85 ± 0.091
FVYNKVNETEAILYTKP [YGR119C/NUP57] | 2.76 ± 0.084 | 3.06 ± 0.072 | 2.74 ± 0.056 | 2.97 ± 0.07
AQYFYSGAYSYPDFRHY [DIS3] | 1.43 ± 0.056 | 1.43 ± 0.09 | 1.87 ± 0.16 | 1.56 ± 0.081
RVLETTLVEFETIKMKE [BRN1] | 2.12 ± 0.22 | 3.23 ± 0.14 | – | 1.34 ± 0.086
ISSRTYGQRAVLKFAAH [RPS0B] | 1.78 ± 0.064 | 2.22 ± 0.095 | 2.26 ± 0.09 | 1.64 ± 0.069
SKALYPDYYMIIKYPVA [SNF2] | 2.37 ± 0.039 | 2.31 ± 0.038 | 2.02 ± 0.054 | 2.53 ± 0.031
SYRGVDLEKLLEMSTED [RPS15] | 2.76 ± 0.14 | 2.86 ± 0.12 | 2.27 ± 0.2 | 3.19 ± 0.083
QQQMANNNGNPGTTSTG [GAL11] | 3.13 ± 0.11 | 3.44 ± 0.065 | 3.26 ± 0.049 | 3.31 ± 0.043
PEYAKVGDFLLQYANNA [SIN4] | 2.4 ± 0.085 | 2.55 ± 0.069 | 2.5 ± 0.066 | 1.97 ± 0.044
GDTIELAIIGDENPDLL [PRE8] | 3.56 ± 0.22 | 3.11 ± 0.17 | – | –
LSEEKEVIFTDVLKSQA [MCD1] | 2.92 ± 0.2 | 3.09 ± 0.23 | 3.13 ± 0.12 | 2.77 ± 0.17
FVHYGEIKNDFIMVKGC [RPL3] | 2.06 ± 0.094 | 2.14 ± 0.067 | 2.1 ± 0.1 | 2.38 ± 0.076
KGLVSQQLDSFNQFVDY [RPB2] | 2.64 ± 0.077 | 2.52 ± 0.1 | 2.41 ± 0.078 | 2.6 ± 0.066
NAEATKEEFSSAENRDE [CSE2] | 3.14 ± 0.082 | 3.25 ± 0.086 | 3.35 ± 0.059 | 3.28 ± 0.069
KKGESEKDASGKPSFVF [YOR098C/NUP1] | 2.19 ± 0.066 | 2.32 ± 0.1 | 2.32 ± 0.15 | 2.23 ± 0.073
SSKLYQMQQQQQAQAQA [GAL11] | 1.89 ± 0.071 | 2.09 ± 0.051 | 1.9 ± 0.082 | 1.82 ± 0.057
AKPDEKKNDEVSKPAFS [YJL041W/NSP1] | – | 3.11 ± 0.19 | 2.94 ± 0.29 | 3.2 ± 0.14
NNVNEYSYTTIVLSDQT [YJL039C/NUP192] | 3.11 ± 0.059 | 3.14 ± 0.066 | 3.09 ± 0.045 | 2.93 ± 0.044
LSTTPTKSNRRVSHSDT [SIR4] | – | 3.06 ± 0.26 | 3.33 ± 0.088 | 3.25 ± 0.2
DETKGFDDNDSGNNYND [MED2] | 3.1 ± 0.055 | 3.07 ± 0.058 | 3.13 ± 0.053 | 3.1 ± 0.048
KKRFDEFMAGFNIISMT [SMC4] | 2.64 ± 0.097 | 2.52 ± 0.11 | 2.87 ± 0.096 | 2.14 ± 0.072
